Reference: US20220177587A1, “METHODS AND USES OF VARIANT CD80 FUSION PROTEINS AND RELATED CONSTRUCTS” (Alpine Immune Sciences, Inc., priority 2018, published 2022)

target: CD28 (Homo sapiens, UniProt P10747); assay: Jurkat/IL2 reporter assay: blockade of CD28 costimulation (plate-bound anti-CD3/CD86-Fc); format: cell-based; design: host or cells: Jurkat cells expressing an IL-2-luciferase reporter; settings: Table E5; protein diluted to 40 nM before mixing with cells; 5 hours
Method: The day before the assay, the assay plate was prepared. […] The plate was incubated overnight at 4° C. to allow the antibody and CD86-Fc protein to adhere to the surface of the plate. The next day, the wells of the assay plate were washed twice with 150 μL PBS prior to the assay.
Jurkat effector cells expressing IL-2-luciferase reporter were counted and resuspended in assay buffer to a concentration of 2×10^6 cells/mL. 60 μL of the Jurkat cell suspension were then added to the wells containing the CD80-Fc fusion molecules or controls. The cells and CD80 proteins were incubated at room temperature for 15 minutes and then 100 μL of the cell/CD80 protein mixture were transferred/well of the prepared anti-CD3/CD86-Fc assay plate.
The assay plate was briefly spun down (10 seconds at 1200 RPM) and incubated at 37° C. for 5 hours. After the 5 hour incubation, the plate was removed and equilibrated to room temperature for 15 minutes. 100 μL of Bio-Glo (Promega) were added/well of the assay plate, which was then placed on an orbital shaker for 10 minutes. Luminescence was measured with a 1 second per well integration time using a BioTek Cytation 3 luminometer.

Row | Molecule | Average Relative Luminescence Units
1 | T41S/A71D/V84A: variant CD80 IgV-Fc, IgV SEQ ID NO:175 (protein) VIHVTKEVKEVATLSCGHNVSVEELAQTRIYWQKEKKMVLSMMSGDMNIWPEYKNRTIFDITNNLSIVILDLRPSDEGTYECVALKYEKDAFKREHLAEVTLSVKAD | 2685 Relative Luminescence Units
2 | K36R/G78A: variant CD80 IgV-Fc, IgV SEQ ID NO:178 (protein) VIHVTKEVKEVATLSCGHNVSVEELAQTRIYWQKERKMVLTMMSGDMNIWPEYKNRTIFDITNNLSIVILALRPSDEATYECVVLKYEKDAFKREHLAEVTLSVKAD | 2597 Relative Luminescence Units
3 | E35D/A71D/L72V: variant CD80 IgV-Fc, IgV SEQ ID NO:200 (protein) VIHVTKEVKEVATLSCGHNVSVEELAQTRIYWQKDKKMVLTMMSGDMNIWPEYKNRTIFDITNNLSIVILDVRPSDEGTYECVVLKYEKDAFKREHLAEVTLSVKAD | 1152 Relative Luminescence Units
4 | E35D/I67L/A71D: variant CD80 IgV-Fc, IgV SEQ ID NO:195 (protein) VIHVTKEVKEVATLSCGHNVSVEELAQTRIYWQKDKKMVLTMMSGDMNIWPEYKNRTIFDITNNLSLVILDLRPSDEGTYECVVLKYEKDAFKREHLAEVTLSVKAD | 1223 Relative Luminescence Units
5 | T13R/M42V/M47I/A71D: variant CD80 IgV-Fc, IgV SEQ ID NO:197 (protein) VIHVTKEVKEVARLSCGHNVSVEELAQTRIYWQKEKKMVLTVMSGDINIWPEYKNRTIFDITNNLSIVILDLRPSDEGTYECVVLKYEKDAFKREHLAEVTLSVKAD | 759 Relative Luminescence Units
6 | A26P/E35D/M43I/L85Q/E88D: variant CD80 IgV-Fc, IgV SEQ ID NO:202 (protein) VIHVTKEVKEVATLSCGHNVSVEELPQTRIYWQKDKKMVLTMISGDMNIWPEYKNRTIFDITNNLSIVILALRPSDEGTYECVVQKYDKDAFKREHLAEVTLSVKAD | 4078 Relative Luminescence Units
7 | E35D/I57I/L70Q/A71D: variant CD80 IgV-Fc, IgV SEQ ID NO:185 (protein) VIHVTKEVKEVATLSCGHNVSVEELAQTRIYWQKDKKMVLTMMSGDMNIWPEYKNRIIFDITNNLSIVIQDLRPSDEGTYECVVLKYEKDAFKREHLAEVTLSVKAD | 280 Relative Luminescence Units
8 | M47L/V68A: variant CD80 IgV-Fc, IgV SEQ ID NO:181 (protein) VIHVTKEVKEVATLSCGHNVSVEELAQTRIYWQKEKKMVLTMMSGDLNIWPEYKNRTIFDITNNLSIAILALRPSDEGTYECVVLKYEKDAFKREHLAEVTLSVKAD | 5445 Relative Luminescence Units
9 | Q27L/E35D/M47I/T57I/L70Q/E88D: variant CD80 IgV-Fc, IgV SEQ ID NO:204 (protein) VIHVTKEVKEVATLSCGHNVSVEELALTRIYWQKDKKMVLTMMSGDINIWPEYKNRIIFDITNNLSIVIQALRPSDEGTYECVVLKYDKDAFKREHLAEVTLSVKAD | 1180 Relative Luminescence Units
10 | M42I/I61V/A71D: variant CD80 IgV-Fc, IgV SEQ ID NO:187 (protein) VIHVTKEVKEVATLSCGHNVSVEELAQTRIYWQKEKKMVLTIMSGDMNIWPEYKNRTIFDVTNNLSIVILDLRPSDEGTYECVVLKYEKDAFKREHLAEVTLSVKAD | 2549 Relative Luminescence Units
11 | M47I/E88D: variant CD80 IgV-Fc, IgV SEQ ID NO:186 (protein) VIHVTKEVKEVATLSCGHNVSVEELAQTRIYWQKEKKMVLTMMSGDINIWPEYKNRTIFDITNNLSIVILALRPSDEGTYECVVLKYDKDAFKREHLAEVTLSVKAD | 2178 Relative Luminescence Units
12 | V20I/M47V/A71D: variant CD80 IgV-Fc, IgV SEQ ID NO:191 (protein) VIHVTKEVKEVATLSCGHNISVEELAQTRIYWQKEKKMVLTMMSGDVNIWPEYKNRTIFDITNNLSIVILDLRPSDEGTYECVVLKYEKDAFKREHLAEVTLSVKAD | 360 Relative Luminescence Units
13 | M47V/I69F/A71D/V831: variant CD80 IgV-Fc, IgV SEQ ID NO:205 (protein) VIHVTKEVKEVATLSCGHNVSVEELAQTRIYWQKEKKMVLTMMSGDVNIWPEYKNRTIFDITNNLSIVFLDLRPSDEGTYECIVLKYEKDAFKREHLAEVTLSVKAD | 290 Relative Luminescence Units
14 | S44P/A71D: variant CD80 IgV-Fc, IgV SEQ ID NO:182 (protein) VIHVTKEVKEVATLSCGHNVSVEELAQTRIYWQKEKKMVLTMMPGDMNIWPEYKNRTIFDITNNLSIVILDLRPSDEGTYECVVLKYEKDAFKREHLAEVTLSVKAD | 2848 Relative Luminescence Units
15 | Q27H/M43I/A71D/R73S: variant CD80 IgV-Fc, IgV SEQ ID NO:183 (protein) VIHVTKEVKEVATLSCGHNVSVEELAHTRIYWQKEKKMVLTMISGDMNIWPEYKNRTIFDITNNLSIVILDLSPSDEGTYECVVLKYEKDAFKREHLAEVTLSVKAD | 1891 Relative Luminescence Units
16 | Q27H/E35G/A71D/L72P/T791: variant CD80 IgV-Fc, IgV SEQ ID NO:196 (protein) VIHVTKEVKEVATLSCGHNVSVEELAHTRIYWQKGKKMVLTMMSGDMNIWPEYKNRTIFDITNNLSIVILDPRPSDEGIYECVVLKYEKDAFKREHLAEVTLSVKAD | 2000 Relative Luminescence Units
17 | H18Y/M47I/T57I/A71G: variant CD80 IgV-Fc, IgV SEQ ID NO:189 (protein) VIHVTKEVKEVATLSCGYNVSVEELAQTRIYWQKEKKMVLTMMSGDINIWPEYKNRIIFDITNNLSIVILGLRPSDEGTYECVVLKYEKDAFKREHLAEVTLSVKAD | 924 Relative Luminescence Units
18 | V22L/E35G/A71D/L72P: variant CD80 IgV-Fc, IgV SEQ ID NO:193 (protein) VIHVTKEVKEVATLSCGHNVSLEELAQTRIYWQKGKKMVLTMMSGDMNIWPEYKNRTIFDITNNLSIVILDPRPSDEGTYECVVLKYEKDAFKREHLAEVTLSVKAD | 2334 Relative Luminescence Units
19 | Q33E/T41A: variant CD80 IgV-Fc, IgV SEQ ID NO:179 (protein) VIHVTKEVKEVATLSCGHNVSVEELAQTRIYWEKEKKMVLAMMSGDMNIWPEYKNRTIFDITNNLSIVILALRPSDEGTYECVVLKYEKDAFKREHLAEVTLSVKAD | 4220 Relative Luminescence Units
20 | M47V/N48H: variant CD80 IgV-Fc, IgV SEQ ID NO:180 (protein) VIHVTKEVKEVATLSCGHNVSVEELAQTRIYWQKEKKMVLTMMSGDVHIWPEYKNRTIFDITNNLSIVILALRPSDEGTYECVVLKYEKDAFKREHLAEVTLSVKAD | 2656 Relative Luminescence Units
21 | V20I/M47V/I57I/V84I: variant CD80 IgV-Fc, IgV SEQ ID NO:190 (protein) VIHVTKEVKEVATLSCGHNISVEELAQTRIYWQKEKKMVLTMMSGDVNIWPEYKNRIIFDITNNLSIVILALRPSDEGTYECVILKYEKDAFKREHLAEVTLSVKAD | 1870 Relative Luminescence Units

same assay, conditions: Table E5; protein diluted to 40 nM before mixing with cells; 5 hours; SEQ ID NO 176

Row | Molecule | Average Relative Luminescence Units
22 | E35D/A71D: variant CD80 IgV-Fc, listed twice: IgV SEQ ID NO:176 (Table E1) and 194 (Table E2) (protein) VIHVTKEVKEVATLSCGHNVSVEELAQTRIYWQKDKKMVLTMMSGDMNIWPEYKNRTIFDITNNLSIVILDLRPSDEGTYECVVLKYEKDAFKREHLAEVTLSVKAD | 1461 Relative Luminescence Units
